pKd: −log10 of the molar value.
Key:
[1] = target: BG505 F14/Vt8 SOSIP (HIV-1 (clade A BG505)); assay: BLI dose response, one site specific binding fit to the average of two experiments
[2] = target: BG505 F14 SOSIP (HIV-1 (clade A BG505)); assay: as above
[3] = target: BG505 Vt8 SOSIP (HIV-1 (clade A BG505)); assay: as above
[4] = target: BG505 SOSIP (HIV-1 (clade A BG505)); assay: as above
[5] = target: BG505 F14/Vt8 SOSIP (HIV-1 (clade A BG505)); assay: BLI dose response, antibody captured on anti-human Fc tips, SOSIP in solution
[6] = target: BG505 Vt8 SOSIP (HIV-1 (clade A BG505)); assay: as above
[7] = target: BG505 DS gp160 (cell surface expressed trimer) (HIV-1 (clade A BG505)); assay: flow cytometry, 293F cells expressing gp160; mean of 3 experiments ± SD
[8] = target: BG505 F14 gp160 (cell surface expressed trimer) (HIV-1 (clade A BG505)); assay: as above
[9] = target: BG505 F14/Vt8 gp160 (cell surface expressed trimer) (HIV-1 (clade A BG505)); assay: as above
[10] = target: BG505 gp160 (cell surface expressed trimer) (HIV-1 (clade A BG505)); assay: as above
[11] = target: BG505 Vt8 gp160 (cell surface expressed trimer) (HIV-1 (clade A BG505)); assay: as above
soluble CD4 (sCD4) = soluble CD4 (sCD4) (UniProt P01730); assay: SPR, apparent affinity for sCD4
[12] = target: BG505 DS gp160 (cell surface expressed trimer) (HIV-1 (clade A BG505)); assay: flow cytometry, 293F cells expressing gp160, antibody 10 ug/mL
[13] = target: BG505 F14 gp160 (cell surface expressed trimer) (HIV-1 (clade A BG505)); assay: as above
[14] = target: BG505 F14/Vt8 gp160 (cell surface expressed trimer) (HIV-1 (clade A BG505)); assay: as above
[15] = target: BG505 gp160 (cell surface expressed trimer) (HIV-1 (clade A BG505)); assay: as above
[16] = target: BG505 Vt8 gp160 (cell surface expressed trimer) (HIV-1 (clade A BG505)); assay: as above

Row | Substance | pKd [1] | pKd [2] | pKd [3] | pKd [4] | percentage of cells binding [7] [%] | percentage of cells binding [8] [%] | percentage of cells binding [9] [%] | percentage of cells binding [10] [%] | percentage of cells binding [11] [%] | other results
1 | VRC01 (antibody) | 6.50 | 6.25 | 6.57 | 6.21 |  |  |  |  |  | fold enhancement of affinity relative to BG505 SOSIP [5]: 2 fold; fold enhancement of affinity relative to BG505 SOSIP [6]: 2 fold
2 | PGT151 (antibody) | 7.62 | 7.63 | 7.62 | 7.57 |  |  |  |  |  | 
3 | PGT125 (antibody) |  |  |  |  | 38.2 | 54.7 | 37.9 | 47.1 | 43.2 | 
4 | CH01 (antibody) |  |  |  |  | 20.8 | 37.7 | 22.1 | 32.8 | 30.2 | 
5 | VRC26 (antibody) | 7.30 | 7.30 | 7.22 | 7.17 |  |  |  |  |  | 
6 | PGT121 (antibody) | 6.58 | 6.66 | 6.58 | 6.65 |  |  |  |  |  | 
7 | PGT145 (antibody) | 7.10 | 7.12 | 7.17 | 7.19 | 35.4 | 48.8 | 34.8 | 46 | 38.2 | 
8 | PG9 (antibody) | 6.47 | 7.34 | 6.47 | 6.35 |  |  |  |  |  | 
9 | BG505 SOSIP |  |  |  |  |  |  |  |  |  | pKd (soluble CD4 (sCD4)): 7.17
10 | N6 (antibody) |  |  |  |  | 41 | 53.9 | 40.3 | 45.3 | 44.4 | MFI [12]: 338 MFI; MFI [13]: 568 MFI; MFI [14]: 341 MFI; MFI [15]: 457 MFI; MFI [16]: 378 MFI
